According to PMC5653676:

Molecular target: IL-13 receptor (IL-4Rα and IL-13Rα1) (UniProt P24394)
UniProt P24394, sequence (P24394 26-825, chain 1 of 2): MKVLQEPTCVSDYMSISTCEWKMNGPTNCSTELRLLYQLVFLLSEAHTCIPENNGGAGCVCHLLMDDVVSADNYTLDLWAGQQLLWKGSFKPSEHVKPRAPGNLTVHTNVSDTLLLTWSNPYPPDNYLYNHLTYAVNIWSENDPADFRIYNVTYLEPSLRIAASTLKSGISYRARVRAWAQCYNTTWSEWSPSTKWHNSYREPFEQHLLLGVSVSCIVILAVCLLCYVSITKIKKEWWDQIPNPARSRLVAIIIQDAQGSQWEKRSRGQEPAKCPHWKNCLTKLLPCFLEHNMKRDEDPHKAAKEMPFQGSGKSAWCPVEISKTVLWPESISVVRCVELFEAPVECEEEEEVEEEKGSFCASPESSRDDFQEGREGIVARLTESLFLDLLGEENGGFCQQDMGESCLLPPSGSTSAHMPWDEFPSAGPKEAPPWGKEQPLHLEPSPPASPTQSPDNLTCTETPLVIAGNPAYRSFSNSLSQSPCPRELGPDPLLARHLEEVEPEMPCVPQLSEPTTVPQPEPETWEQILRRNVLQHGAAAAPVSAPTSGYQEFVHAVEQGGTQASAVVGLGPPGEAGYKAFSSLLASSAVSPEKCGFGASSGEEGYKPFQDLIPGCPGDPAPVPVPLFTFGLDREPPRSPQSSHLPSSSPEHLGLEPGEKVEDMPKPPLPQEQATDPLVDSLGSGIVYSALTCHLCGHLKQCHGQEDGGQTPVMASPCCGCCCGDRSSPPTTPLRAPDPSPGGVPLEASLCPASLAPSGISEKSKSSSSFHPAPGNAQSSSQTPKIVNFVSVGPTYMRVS
UniProt P24394, sequence (P78552 22-427, chain 2 of 2, further chain): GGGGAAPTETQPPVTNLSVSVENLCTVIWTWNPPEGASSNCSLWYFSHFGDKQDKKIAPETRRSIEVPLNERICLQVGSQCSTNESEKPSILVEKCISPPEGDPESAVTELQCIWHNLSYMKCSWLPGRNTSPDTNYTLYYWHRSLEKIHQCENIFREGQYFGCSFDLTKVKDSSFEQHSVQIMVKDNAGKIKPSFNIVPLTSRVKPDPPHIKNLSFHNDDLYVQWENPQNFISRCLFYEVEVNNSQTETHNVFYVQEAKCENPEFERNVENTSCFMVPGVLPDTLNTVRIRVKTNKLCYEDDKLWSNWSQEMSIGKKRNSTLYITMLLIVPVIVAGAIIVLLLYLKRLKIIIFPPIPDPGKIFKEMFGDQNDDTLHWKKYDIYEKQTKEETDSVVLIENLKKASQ

SEAP reporter (P STAT6/cEBP-SEAP) in HEK-293 cells co-transfected with IL-13Rα1, IL-4Rα and STAT6, 48 h with different physiological IL-13 concentrations; fold induction: 33 fold
Substance: human recombinant interleukin 13 (from UniProt P35225 25-146) (ligand)
